For series [1], the system named is Saccharomyces cerevisiae. The experiment in a line: protein stability index of tFT-peptide fusion in wild type (PSI (0-1 scale)); higher = more stable (slower turnover). The following applies: genetic background: wild type. As to the method:
(§1)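 MPS profiling in S. cerevisiae of two library types built from selected 12-aa C-degron peptides (IN1, IN2, LN1, LN3, VN2, R1-R5, W1-W3, Atg1 and Rpa12 C-termini): saturation mutagenesis libraries and C-terminal +1 capping libraries (13 aa). Each peptide is fused to the C-terminus of a sfGFP-mCherry timer, after a GGGS linker. Cells are FACS-sorted into 8 mCherry/sfGFP bins and sequenced. PSI runs from 0 (unstable) to 1 (stable), measured once in wild type and in the das1Δ or doa10Δ background.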

In series [2] the test system is Saccharomyces cerevisiae. The experiment in a line: protein stability index of tFT-peptide fusion in deletion strain of DAS1 (PSI (0-1 scale)); higher = more stable (slower turnover). On the procedure: as §1
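For protein stability index of tFT-peptide fusion in deletion strain of DAS1 in this document: PSI is a weighted mean of each variant's read distribution over the sorted stability bins, computed only for variants having over 10 reads in total.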
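For protein stability index of tFT-peptide fusion in wild type in this document: PSI derived as read-weighted mean over the 8 sorting bins, only variants exceeding 10 total reads kept, mCherry placed adjacent to the peptide and sfGFP distal.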

AMWRVGLWRGAS: the protein stability index with Saccharomyces cerevisiae [1] came out at 0.43; in the series with Saccharomyces cerevisiae [2], 0.65.
In the same order, the values of AQWRVGLWRGAS are 0.499 and 0.709.
Turning to ARWREGLWRGAS, the protein stability index turned out to be 0.673 in the series on Saccharomyces cerevisiae [1] and 0.695 in the series with Saccharomyces cerevisiae [2].
In the same order, the values of ARWRVGCWRGAS are 0.524 and 0.637.
For the sequence ARWRVGDWRGAS, the figures for the protein stability index in the series with Saccharomyces cerevisiae [1] and in the series on Saccharomyces cerevisiae [2] were 0.665 and 0.714, respectively.
Taken in the same sequence, the figures for ARWRVGIWRGAS were 0.344 and 0.691.
In the same order, the values of ARWRVGKWRGAS are 0.327 and 0.687.
In the same order, the values of ARWRVGLCRGAS are 0.657 and 0.671.
Regarding ARWRVGLHRGAS, the results for the protein stability index with Saccharomyces cerevisiae [1] and in the series on Saccharomyces cerevisiae [2] were 0.63 and 0.685, respectively.
Taken in the same sequence, the figures for ARWRVGLIRGAS were 0.561 and 0.665.
In the case of ARWRVGLWLGAS, the figures for the protein stability index in the series with Saccharomyces cerevisiae [1] and with Saccharomyces cerevisiae [2] were 0.467 and 0.618, respectively.
In the case of ARWRVGLWMGAS, the protein stability index turned out to be 0.622 in the series on Saccharomyces cerevisiae [1] and 0.667 in the series on Saccharomyces cerevisiae [2].
Turning to ARWRVGLWRGAG, the protein stability index worked out at 0.254 with Saccharomyces cerevisiae [1] and 0.64 in the series on Saccharomyces cerevisiae [2].
In the case of ARWRVGLWRGAH, the protein stability index in the series on Saccharomyces cerevisiae [1] was determined as 0.536; in the series on Saccharomyces cerevisiae [2], 0.688.
Taken in the same sequence, the figures for ARWRVGLWRGASE were 0.663 and 0.666.
In the same order, the values of ARWRVGLWRGASL are 0.719 and 0.715.
For the sequence ARWRVGLWRGASN, the results for the protein stability index in the series with Saccharomyces cerevisiae [1] and in the series with Saccharomyces cerevisiae [2] were 0.658 and 0.689, respectively.
For the sequence ARWRVGLWRGASY, the protein stability index in the series on Saccharomyces cerevisiae [1] came to 0.653; in the series on Saccharomyces cerevisiae [2], 0.69.
In the same order, the values of ARWRVGLWRGDS are 0.667 and 0.688.
In the same order, the values of ARWRVGLWRGMS are 0.202 and 0.663.
In the case of ARWRVGLWRIAS, the protein stability index with Saccharomyces cerevisiae [1] came out at 0.088; with Saccharomyces cerevisiae [2], 0.677.
Regarding ARWRVGLWRQAS, the protein stability index in the series on Saccharomyces cerevisiae [1] was 0.0958; in the series with Saccharomyces cerevisiae [2] it was 0.678.
As for ARWRVGLWRVAS, the protein stability index is 0.0841 in the series on Saccharomyces cerevisiae [1] and 0.67 in the series on Saccharomyces cerevisiae [2].
In the case of ARWRVGLWYGAS, the protein stability index came to 0.603 in the series with Saccharomyces cerevisiae [1] and 0.718 with Saccharomyces cerevisiae [2].
Taken in the same sequence, the figures for ARWRVGVWRGAS were 0.304 and 0.686.
In the same order, the values of ARWWVGLWRGAS are 0.508 and 0.742.
Taken in the same sequence, the figures for CDSCGYKFRTNN were 0.251 and 0.691.
For the sequence CKHKKGQKQKIN, the protein stability index with Saccharomyces cerevisiae [1] came out at 0.0815; in the series on Saccharomyces cerevisiae [2] it was 0.568.
Taken in the same sequence, the figures for CTMCGYKFRTNN were 0.236 and 0.69.
CTSAGYKFRTNN: the protein stability index in the series with Saccharomyces cerevisiae [1] was found to be 0.303; in the series with Saccharomyces cerevisiae [2] it was 0.678.
In the same order, the values of CTSCGHKFRTNN are 0.256 and 0.706.
On to CTSCGRKFRTNN, for which the protein stability index in the series with Saccharomyces cerevisiae [1] is 0.456; with Saccharomyces cerevisiae [2], 0.717.
Turning to CTSCGSKFRTNN, the protein stability index stood at 0.549 in the series with Saccharomyces cerevisiae [1] and 0.692 in the series with Saccharomyces cerevisiae [2].
Taken in the same sequence, the figures for CTSCGYKFLTNN were 0.332 and 0.696.
Regarding CTSCGYKFQTNN, the figures for the protein stability index in the series with Saccharomyces cerevisiae [1] and with Saccharomyces cerevisiae [2] were 0.175 and 0.723, respectively.
In the same order, the values of CTSCGYKFRSNN are 0.508 and 0.715.
As to CTSCGYKFRTGN, the protein stability index in the series with Saccharomyces cerevisiae [1] is 0.581; with Saccharomyces cerevisiae [2], 0.701.
Taken in the same sequence, the figures for CTSCGYKFRTNI were 0.601 and 0.701.
In the same order, the values of CTSCGYKFRTNNL are 0.723 and 0.715.
Taken in the same sequence, the figures for CTSCGYKFRTNNQ were 0.681 and 0.673.
CTSCGYKFRTNV: the protein stability index in the series with Saccharomyces cerevisiae [1] worked out at 0.53; in the series on Saccharomyces cerevisiae [2] it was 0.681.
In the same order, the values of CTSCGYKFRTWN are 0.288 and 0.727.

Source of the values: the supplement of paper PMC10724198.
